For the assay, the target named is T1, G-protein–coupled receptor kinase–interacting protein-1 (human (endogenous in HUVEC), UniProt Q9Y2X7 1-761).
T1 sequence (looked up): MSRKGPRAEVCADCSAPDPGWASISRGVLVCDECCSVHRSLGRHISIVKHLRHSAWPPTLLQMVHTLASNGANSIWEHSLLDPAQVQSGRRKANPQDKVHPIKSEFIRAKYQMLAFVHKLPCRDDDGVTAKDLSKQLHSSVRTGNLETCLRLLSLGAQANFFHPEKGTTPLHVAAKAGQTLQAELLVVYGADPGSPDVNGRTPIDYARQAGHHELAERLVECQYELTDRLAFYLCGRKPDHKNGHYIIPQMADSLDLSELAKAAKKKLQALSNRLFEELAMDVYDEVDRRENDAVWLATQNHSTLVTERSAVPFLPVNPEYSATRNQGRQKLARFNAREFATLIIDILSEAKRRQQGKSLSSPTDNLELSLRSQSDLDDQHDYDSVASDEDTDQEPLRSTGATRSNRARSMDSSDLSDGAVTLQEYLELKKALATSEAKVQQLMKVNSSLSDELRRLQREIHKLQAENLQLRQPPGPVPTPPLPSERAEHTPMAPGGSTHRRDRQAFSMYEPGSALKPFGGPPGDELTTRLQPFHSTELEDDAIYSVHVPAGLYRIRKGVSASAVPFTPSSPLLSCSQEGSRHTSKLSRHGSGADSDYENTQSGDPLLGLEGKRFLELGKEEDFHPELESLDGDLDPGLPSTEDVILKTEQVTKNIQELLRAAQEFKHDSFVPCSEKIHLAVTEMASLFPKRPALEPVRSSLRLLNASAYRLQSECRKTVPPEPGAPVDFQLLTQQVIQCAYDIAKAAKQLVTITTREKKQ
The assay is described as follows: co-IP.

B1: cortactin (natural protein, human (endogenous in HUVEC), UniProt Q14247 1-550, looked up)
chain: MWKASAGHAVSIAQDDAGADDWETDPDFVNDVSEKEQRWGAKTVQGSGHQEHINIHKLRENVFQEHQTLKEKELETGPKASHGYGGKFGVEQDRMDKSAVGHEYQSKLSKHCSQVDSVRGFGGKFGVQMDRVDQSAVGFEYQGKTEKHASQKDYSSGFGGKYGVQADRVDKSAVGFDYQGKTEKHESQRDYSKGFGGKYGIDKDKVDKSAVGFEYQGKTEKHESQKDYVKGFGGKFGVQTDRQDKCALGWDHQEKLQLHESQKDYKTGFGGKFGVQSERQDSAAVGFDYKEKLAKHESQQDYSKGFGGKYGVQKDRMDKNASTFEDVTQVSSAYQKTVPVEAVTSKTSNIRANFENLAKEKEQEDRRKAEAERAQRMAKERQEQEEARRKLEEQARAKTQTPPVSPAPQPTEERLPSSPVYEDAASFKAELSYRGPVSGTEPEPVYSMEAADYREASSQQGLAYATEAVYESAEAPGHYPAEDSTYDEYENDLGITAVALYDYQAAGDDEISFDPDDIITNIEMIDDGWWRGVCKGRYGLFPANYVELRQ
In the case of B1, the “fold increase of association on VEGF (vs unstimulated)” value was 6 fold.

B2: phosphorylated S405-cortactin (natural protein, human (endogenous in HUVEC), UniProt Q14247 1-550, looked up)
chain: B1 chain
modifications: phosphoserine at 405
Regarding B2, the “fold increase of its level in the GIT1–cortactin complex on VEGF” value is 4 fold.
